Test results as given in patent publication US11608371 (PETMEDIX, dated 2023).
Where two headings read alike, the source gives them in different places.

Assays:
[1] = target: Canine FcRn-B2M recombinant protein (Immunitrack) (canine); test: SPR (Biacore 8K), canine FcRn-B2M amine-coupled on CM5 chip, running buffer pH 6, steady state affinity
[2] = target: T1, Human nerve growth factor (NGF) (human, UniProt P01138 122-241); test: SPR (Biacore 8K), human NGF as analyte on Bedinvetmab, kinetics affinity, 1:1 binding fit
T1 construct: Bought reagent for SPR; also called human NGF; hNGF

[3] = target: T1, Human nerve growth factor (NGF); test: cell-based or functional assay
[4] = target: T2, Rat nerve growth factor (NGF) (rat, UniProt P25427 122-241); test: SPR (Biacore 8K), PetML119 captured on Protein A chip, rat NGF as analyte, kinetics affinity
T2 construct: Bought reagent; also called rat NGF
Procedure: (§1) Briefly, Protein A Sensor Chip (Cytiva) was docked into Biacore 8K, equilibrated for 30' at RT and then Running Buffer (10 mM HEPES pH7.4 150 mM NaCl 3 mM EDTA and 0.005% Tween20) was applied to the SPR chip surface.
(§2) These have been immobilised using 90 sec association at 10 uL/min as capturing step, followed by injection of running buffer to remove any unbound product.
(§3) Kinetics were assessed using multi-cycle kinetics with capture step method (30 sec association-120 sec dissociation) followed by regeneration step (0.1M Glycine pH2.2 contact time 60 sec FR 30 uL/min).

[5] = target: T3, Murine FcRn-B2M recombinant protein (Immunitrack) (murine, UniProt Q61559 22-297; P01887 21-119, limits assumed); test: SPR (Biacore 8K), murine FcRn-B2M amine-coupled on CM5 chip, running buffer pH 6, steady state affinity
T3 construct: Bought reagent, amine-coupled to a CM5 chip; also called murine neonatal receptor
T3 sequence (looked up): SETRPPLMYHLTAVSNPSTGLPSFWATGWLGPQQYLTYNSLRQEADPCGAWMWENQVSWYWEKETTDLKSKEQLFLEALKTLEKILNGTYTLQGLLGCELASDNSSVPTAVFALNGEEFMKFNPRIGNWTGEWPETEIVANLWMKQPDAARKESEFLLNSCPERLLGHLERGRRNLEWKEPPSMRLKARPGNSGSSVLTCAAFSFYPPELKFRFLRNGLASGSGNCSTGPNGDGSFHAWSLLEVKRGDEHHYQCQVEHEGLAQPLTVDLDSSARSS
T3 sequence (b2m, looked up): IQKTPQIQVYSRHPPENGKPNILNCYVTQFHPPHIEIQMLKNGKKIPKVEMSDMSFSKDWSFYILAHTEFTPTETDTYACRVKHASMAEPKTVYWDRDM
Procedure: (§4) Briefly, CM5 Sensor Chip (Cytiva) was docked into Biacore 8K, equilibrated for 30' at RT and then Running Buffer (10 mM HEPES pH6 150 mM NaCl 3 mM EDTA and 0.005% Tween20) was applied to the SPR chip surface.
(§5) Canine and murine FcRn-B2M recombinant protein (Immunitrack, ITF12-ITF08) was diluted into 10 mM acetate buffer pH4.5 at 4 nM (1:2000 dilution from stock) and immobilised using standard amine coupling reaction.

[6] = target: T1, Human nerve growth factor (NGF); test: SPR (Biacore 8K), PetML119 captured on Protein A chip, human NGF as analyte, kinetics affinity
Procedure: as §1, §2, §3

[7] = target: T3, Murine FcRn-B2M recombinant protein …; test: SPR (Biacore 8K), murine FcRn-B2M amine-coupled on CM5 chip, running buffer pH 6, steady state affinity; remark: listed apart in the source
Procedure: as §4, §5

[8] = target: T3, Murine FcRn-B2M recombinant protein …; test: SPR (Biacore 8K), murine FcRn-B2M amine-coupled on CM5, pH 6, multi-cycle kinetics; reference not named, taken as PetML119 (wild type Fc)
Procedure: as §4, §5

T1 sequence (P01138 122-241 limits assumed): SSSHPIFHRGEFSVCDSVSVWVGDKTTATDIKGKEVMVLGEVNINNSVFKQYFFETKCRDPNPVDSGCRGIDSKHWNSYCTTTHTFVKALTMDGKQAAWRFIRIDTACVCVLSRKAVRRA
T2 sequence (P25427 122-241 limits assumed): as the sequence (P01138 122-241 limits assumed) above, with S3T, I6V, R9M, M37T, D60A, D65E, M92T, G94D, V117A, A120G counted along it

Question: “PetML122 (canine p75NTR ECD - canine Fc YTE protein fusion) (Fc fusion)” was tested. Which Kd [1] did it give?
Answer: 400 nM

Question: “PetML119 (canine p75NTR ECD - canine IgGB wt Fc protein fusion) (Fc fusion)” was tested. Which Kd [1] did it give?
Answer: 6000 nM

B1: Bedinvetmab (antibody, V domains shown)
VH: EVQLVESGGDLVKPGGSLRLSCVASGFTFSSHGMHWVRQSPGKGLQWVAVINSGGSSTYYTDAVKGRFTISRDNAKNTVYLQMNSLRAEDTAMYYCAKESVGGWEQLVGPHFDYWGQGTLVIVSS
VL: QSVLTQPTSVSGSLGQRVTISCSGSTNNIGILGASWYQLFPGKAPKLLVYGNGNRPSGVPDRFSGADSGDSVTLTITGLQAEDEADYYCQSFDTTLGAHVFGGGTHLTVL
Question: For B1, which Kd [2] is on record?
Answer: 0.073 nM

Question: What about the “IC50 (nM), inhibition of TF-1 cell proliferation” value [3] of the same molecule?
Answer: 1.65 nM

B2: PetML119 (canine p75NTR ECD - canine IgGB wt Fc protein fusion) (Fc fusion)
chain: KEACPTGLYTHSGECCKACNLGEGVAQPCGANQTVCEPCLDSVTFSDVVSATEPCKPCTECVGLQSMSAPCVEADDAVCRCAYGYYQDETTGRCEACRVCEAGSGLVFSCQDRQNTVCEECPDGTYSDEANHVDPCLPCTVCEDTERQLRECTRWADAECEEIPGGGGRENGRVPRPPDCPKCPAPEMLGGPSVFIFPPKPKDTLLIARTPEVTCVVVDLDPEDPEVQISWFVDGKQMQTAKTQPREEQFNGTYRVVSVLPIGHQDWLKGKQFTCKVNNKALPSPIERTISKARGQAHQPSVYVLPPSREELSKNTVSLTCLIKDFFPPDIDVEWQSNGQQEPESKYRTTPPQLDEDGSYFLYSKLSVDKSRWQRGDTFICAVMHEALHNHYTQKSLSHSPGK
notes: also called PetMI119; Fc-Bwt
Question: Which results are given for B2?
Answer: Kd [4]: 0.12 nM; Kd [5]: 2000 nM; IC50 (nM), inhibition of TF-1 cell proliferation [3]: 15.2 nM; Kd [6]: 0.12 nM

B3: PetML122 (canine p75NTR ECD - canine Fc YTE protein fusion) (Fc fusion)
chain: KEACPTGLYTHSGECCKACNLGEGVAQPCGANQTVCEPCLDSVTFSDVVSATEPCKPCTECVGLQSMSAPCVEADDAVCRCAYGYYQDETTGRCEACRVCEAGSGLVFSCQDRQNTVCEECPDGTYSDEANHVDPCLPCTVCEDTERQLRECTRWADAECEEIPGGGGRENGRVPRPPDCPKCPAPEMLGGPSVFIFPPKPKDTLYITREPEVTCVVVDLDPEDPEVQISWFVDGKQMQTAKTQPREEQFNGTYRVVSVLPIGHQDWLKGKQFTCKVNNKALPSPIERTISKARGQAHQPSVYVLPPSREELSKNTVSLTCLIKDFFPPDIDVEWQSNGQQEPESKYRTTPPQLDEDGSYFLYSKLSVDKSRWQRGDTFICAVMHEALHNHYTQKSLSHSPGK
notes: Same construct as PetML119, but with the YTE triple mutation in the Fc; also called PetMI122; Fc-B-YTE
Question: Which Kd [7] does the source give for B3 here?
Answer: 90 nM

Question: And the “fold increase in binding affinity” value [8]?
Answer: 10 fold

Question: And the “IC50 (nM), inhibition of TF-1 cell proliferation” value [3]?
Answer: 5.91 nM
